Test results published in article PMC8939794.

Target: His6-Tagged vimentin (Novus Biologicals) (UniProt P08670)
Test: MST; His6-vimentin labelled with RED-tris-NTA 2nd Generation dye, kept at 20 nM; V-domain protein titrated from 40 uM to 0.117 uM; premium capillaries, Monolith NT.115 Pico, 20% excitation power; 'estimated' Kd

Sequence of UniProt P08670 (P08670 whole entry): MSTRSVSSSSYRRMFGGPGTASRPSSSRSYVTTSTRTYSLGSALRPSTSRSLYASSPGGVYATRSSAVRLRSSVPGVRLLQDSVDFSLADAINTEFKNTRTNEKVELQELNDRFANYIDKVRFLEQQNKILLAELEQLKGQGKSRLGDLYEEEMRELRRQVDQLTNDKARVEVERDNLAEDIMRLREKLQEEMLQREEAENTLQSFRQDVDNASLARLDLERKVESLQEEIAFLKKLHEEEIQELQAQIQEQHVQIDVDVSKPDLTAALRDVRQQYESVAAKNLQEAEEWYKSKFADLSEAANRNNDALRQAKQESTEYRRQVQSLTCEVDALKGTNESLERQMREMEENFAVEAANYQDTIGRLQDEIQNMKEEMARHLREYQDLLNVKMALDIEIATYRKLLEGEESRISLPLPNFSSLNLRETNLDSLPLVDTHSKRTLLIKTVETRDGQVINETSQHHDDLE

Row | Substance | Kd [µM]
1 | BspC Gating Loop Mutant (GLM) V-domain, A250P/A259P (domain or fragment) | 41.9
2 | BspC V-domain (variable domain of Group B streptococcal surface protein C, strain COH1) (domain or fragment) | 7.14
